{"source": "patent US20220119492A1", "about": "(MEDIKINE, published 2022)", "note": "Bridge positions count the residues as written; N and C are the ends. Ends that are not written are not given here."}
{"molecular_target": "T1, human IL-2Rβ (CD122 protein, Fc Tag) (27-239) (human, UniProt P14784 27-239)", "T1 construct": "range 27-239; Bought protein; also called hu-IL-2Rβ subunit; IL-2Rβ subunit; not shown: Fc tag of the bought protein", "T1 sequence (looked up)": "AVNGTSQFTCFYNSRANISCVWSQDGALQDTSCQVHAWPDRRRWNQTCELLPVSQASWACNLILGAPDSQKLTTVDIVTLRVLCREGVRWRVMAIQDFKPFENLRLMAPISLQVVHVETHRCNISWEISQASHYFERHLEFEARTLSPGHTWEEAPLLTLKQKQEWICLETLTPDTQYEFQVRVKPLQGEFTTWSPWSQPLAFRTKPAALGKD", "test": "phage ELISA competition", "outline": "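Competitive binding ELISA in which a phage tracer competes with test ligands for human IL-2Rβ-Fc; IC50 is derived from the absorbance signal across the ligand dilution series. Without washing, 50 μL of phage tracer was added for 45 min at 4° C. Bound phage was detected with TMB for 1 to 15 min at 25° C, followed by stop solution and absorbance at 450 nm.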", "units": {"IC50": "µM"}}
{"binder": "NWFHDCFLARVGDLCDLFLD (disulfide 6-15 (inferred))", "note": "[SEQ ID NO 2874]", "IC50": "< 100"}
{"binder": "VTVQDCYFARVGDLCDLFSP", "note": "[SEQ ID NO 2846]", "IC50": "< 100"}
{"binder": "RYVHDCFIAQVGDLCDLFLH", "note": "[SEQ ID NO 2859]", "IC50": "< 100"}
{"binder": "VSRYDCYIAKVGELCDFFEF", "note": "[SEQ ID NO 2845]", "IC50": "< 100"}
{"binder": "GGYYDCLIAEVGELCDMPGQ", "note": "[SEQ ID NO 2837]", "IC50": "< 100"}
{"binder": "WTCWLTQLGYDCNLDVVDQSLG", "note": "[SEQ ID NO 2881]", "IC50": "< 100"}
{"binder": "RLASDWWDCYIAKVGELCDF", "note": "[SEQ ID NO 2855]", "IC50": "< 100"}
{"binder": "WEWYDCLMAQVGELCDFEGN", "note": "[SEQ ID NO 2847]", "IC50": "< 100"}
{"binder": "YDCYIAQVGELCDI", "note": "[SEQ ID NO 2852]", "IC50": "< 100"}
{"binder": "EFFHDCYVARVGELCDLFGW", "note": "[SEQ ID NO 2876]", "IC50": "< 100"}
{"binder": "YSFKDCYFAKVGELCELFLW", "note": "[SEQ ID NO 2875]", "IC50": "< 100"}
{"binder": "EFWGWQCWQEPLGWSCDLEWMD", "note": "[SEQ ID NO 2883]", "IC50": "< 100"}
{"binder": "SYLCWLDHWGVICEED", "note": "[SEQ ID NO 2877]", "IC50": "< 100"}
{"binder": "GGYYDCLIAEVGELCDIYGR", "note": "[SEQ ID NO 2850]", "IC50": "< 100"}
{"binder": "THVHDCFLAKVGDLCDLFIV", "note": "[SEQ ID NO 2866]", "IC50": "< 100"}
{"binder": "VHDCFIAQVGDLCDLF", "note": "[SEQ ID NO 2887]", "IC50": "< 100"}
{"binder": "WPCWAALGELCDLD", "note": "[SEQ ID NO 2888]", "IC50": "< 100"}
{"binder": "HGILDCYFAKVGELCELFDW", "note": "[SEQ ID NO 2868]", "IC50": "< 100"}
{"binder": "EIFKDCLFANVGELCEIFPS", "note": "[SEQ ID NO 2873]", "IC50": "< 100"}
{"binder": "SNWHDCLFAQVGELCDLPGS (disulfide 6-15 (inferred))", "note": "[SEQ ID NO 2851]", "IC50": "< 100"}
{"binder": "ELLVDCFKVKVGELCDLFFG (disulfide 6-15 (inferred))", "note": "[SEQ ID NO 2858]", "IC50": "< 100"}
{"binder": "TPWYDCYIANVGDLCDFASA", "note": "[SEQ ID NO 2839]", "IC50": "< 100"}
{"binder": "DWLPDCYFANVGDLCSLFGS", "note": "[SEQ ID NO 2870]", "IC50": "< 100"}
{"binder": "RLLRDCFLAKVGDLCELFVW", "note": "[SEQ ID NO 2856]", "IC50": "< 100"}
{"binder": "RSLVDCFLVKVGDLCDFFNW", "note": "[SEQ ID NO 2861]", "IC50": "< 100"}
{"binder": "WGKLVRDCFLAKVGDLCDLFLW", "note": "[SEQ ID NO 2865]", "IC50": "< 100"}
{"binder": "KWVHDCFLAKVGDVCDLFVV", "note": "[SEQ ID NO 2860]", "IC50": "< 100"}
{"binder": "GRYPDCYIAHVGELCEFYDG", "note": "[SEQ ID NO 2842]", "IC50": "< 100"}
{"binder": "YWCSVWQLGSVCEMNNEETQ", "note": "[SEQ ID NO 2880]", "IC50": "< 100"}
{"binder": "VVCYACDIAHVGELCDLTCR", "note": "[SEQ ID NO 2838]", "IC50": "< 100"}
{"binder": "WAFYDCRNAQVGDFCDLWEF", "note": "[SEQ ID NO 2848]", "IC50": "< 100"}
{"binder": "LPFQDCYIAQVGELCDLPGT", "note": "[SEQ ID NO 2835]", "IC50": "< 100"}
{"binder": "AHFYDCFWAKAGELCDLWPS (disulfide 6-15 (inferred))", "note": "[SEQ ID NO 2863]", "IC50": "< 100"}
{"binder": "DGSWYTCWFTQLGEWCEQDDAK", "note": "[SEQ ID NO 2882]", "IC50": "< 100"}
{"binder": "QMVWWDCWSTQEGPVCELNWTA", "note": "[SEQ ID NO 2879]", "IC50": "< 100"}
{"binder": "LVDCFKVKVGELCDLF (disulfide 4-13 (inferred))", "note": "[SEQ ID NO 2886]", "IC50": "< 100"}
{"binder": "LVYYDCYMAQVGELCDLPSL (disulfide 6-15 (inferred))", "note": "[SEQ ID NO 2844]", "IC50": "< 100"}
{"binder": "HWVRDCFLAKVGELCDLFLW", "note": "[SEQ ID NO 2867]", "IC50": "< 100"}
{"binder": "SMDQDCYFAQVGELCVLFNQ", "note": "[SEQ ID NO 2849]", "IC50": "< 100"}
{"binder": "RYLYDCFLALVGDLCVKFHQ", "note": "[SEQ ID NO 2862]", "IC50": "< 100"}
{"binder": "SWLSDLQDCYIAQVGDLCQI", "note": "[SEQ ID NO 2853]", "IC50": "< 100"}
{"binder": "LESLDCFFARIGDLCEIWDV", "note": "[SEQ ID NO 2840]", "IC50": "< 100"}
{"binder": "WQIFDCYLAQVGELCDLQDT (disulfide 6-15 (inferred))", "note": "[SEQ ID NO 2841]", "IC50": "< 100"}
{"binder": "WYTCMMDWLGVHCELE", "note": "[SEQ ID NO 2878]", "IC50": "< 100"}
{"binder": "QWFHNCFLARVGDTCDLFLW", "note": "[SEQ ID NO 2857]", "IC50": "< 100"}
{"binder": "RWMFDCLFARVGELCDIRPW (disulfide 6-15 (inferred))", "note": "[SEQ ID NO 2836]", "IC50": "< 100"}
{"binder": "HWFLDCFLANVGDLCDFFGN", "note": "[SEQ ID NO 2871]", "IC50": "< 100"}
{"binder": "QFVKDCFLAQVGDLCELFLW", "note": "[SEQ ID NO 2869]", "IC50": "< 100"}
{"binder": "NWLPDCLFANVGELCDIFPW", "note": "[SEQ ID NO 2872]", "IC50": "< 100"}
